Experimental data reported in patent publication US20230212319A1, “NOVEL ANTIGEN BINDING DOMAINS AND SYNTHETIC ANTIGEN RECEPTORS INCORPORATING THE SAME” (University of Southern California, priority 2020, published 2023).

B1: SEQ ID NO: 21975: bispecific SIR: MPL-175 scFv linked to hCD19-Bu12 scFv attached to hTCRα-CSDVP via MYC tag; hTCRβ-KACIAH carries a V5 tag (protein)
chain: MALPVTALLLPLALLLHAARPLEGKPIPNPLLGLDSTGSGEDLKNVFPPEVAVFEPSKAEIAHTQKATLVCLATGFYPDHVELSWWVNGKEVHSGVCTDPQPLKEQPALNDSRYCLSSRLRVSATFWQNPRNHFRCQVQFYGLSENDEWTQDRAKPVTQIVSAEAWGRADCGITSASYHQGVLSATILYEILLGKATLYAVLVSALVLMAMVKRKDSRGRAKRSGSGATNFSLLKQAGDVEENPGPTSMALPVTALLLPLALLLHAARPDQIVLTQSPAIMSASPGEKVTISCSASSSVSYMYWYQQKPGSSPKPWIYRTSNLASGVPARFSGSGSGTSYSLTISNMEAEDAAAYYCQQYHSYPTTFGGGTKLEVKGGGGSGGGGSGGGGSEVQLVESGGGLVQPKGSLKLSCAASGFSFNTYAMNWVRQAPGKGLEWIAHIRSKSNNFATYYADSVKDRFSISRDASENILFLQMNNLKTEDTAMYYCVRQGGDFPMDYWGQGTSVTVSSTREAAAKEIVLTQSPATLSLSPGERATLSCSASSSVSYMHWYQQKPGQAPRLLIYDTSKLASGIPARFSGSGSGTDFTLTISSLEPEDVAVYYCFQGSVYPFTFGQGTKLEIKRGGGGSGGGGSGGGGSQVQLQESGPGLVKPSQTLSLTCTVSGGSISTSGMGVGWIRQHPGKGLEWIGHIWWDDDKRYNPALKSRVTISVDTSKNQFSLKLSSVTAADTAVYYCARMELWSYYFDYWGQGTLVTVSSTREQKLISEEDGSGIQNPDPAVYQLRDSKSSDKSVCLFTDFDSQTNVSQSKDSDVYITDKCVLDMRSMDFKSNSAVAWSNKSDFACANAFNNSIIPEDTFFPSSDVPCDVKLVEKSFETDTNLNFQNLSVIGFRILLLKVAGFNLLMTLRLWSSRAKRSGSGVKQTLNFDLLKLAGDVESNPGPSRGHMTEYKPTVRLATRDDVPRAVRTLAAAFADYPATRHTVDPDRHIERVTELQELFLTRVGLDIGKVWVADDGAAVAVWTTPESVEAGAVFAEIGPRMAELSGSRLAAQQQMEGLLAPHRPKEPAWFLATVGVSPDHQGKGLGSAVVLPGVEAAERAGVPAFLETSAPRNLPFYERLGFTVTADVEVPEGPRTWCMTRKPGA
B2: 22148 (protein)
chain: MALPVTALLLPLALLLHAARPACEVQLLESGGGLIQPGGSLRLSCAASGFTFSSHAMTWVRQAPGKGLEWVSAISGSGDYTHYADSVKGRFTISRDNSKNTVYLQMNSLRAEDSAVYYCAKDEDGGSLLGHRGQGTLVTVSSGTGGGGSGGGGSGGGGSEFDVVMTQSPSSLSASVGDRVTITCMASEDIYIRLAWYQQKPGNAPKLLIYAATSLETGVPSRFSGSGSGTDFTLTISSLQPEDFATYYCQQYWSSPWTFGGGTKVEIKLEGQPKANPTVTLFPPSSEELQANKATLVCLISDFYPGAVTVAWKADGSPVKAGVETTKPSKQSNNKYAASSYLSLTPEQWKSHRSYSCQVTHEGSTVEKTVAPTECSPIKTDVITMDPKDNCSKDANDTLLLQLTNTSAYYMYLLLLLKSVVYFAIITCCLLRRTAFCCNGEKSRAKRSGSGATNFSLLKQAGDVEENPGPTSATMDWIWRILFLVGAATGAHSGPQVQLQESGGGLAQAGGSLRLSCAASGRTFSMGWFRQAPGKEREFVAAITYSGGSPYYASSVRGRFTISRDNAKNTVYLQMNSLKPEDTAVYYCAANPTYGSDWNAENWGQGTQVTVSSGSGGGGSGGGGSGGGGSFEQVQLQESGPGLVKPSQTLSLTCTVSGYSITSDYTWNWIRQPPGNGLEWIGYITYSGSTSYNPSLKSRVLISVDTSKNQVSLKLSSVTAADTAVYYCARLGRRYTMDYWGQGTTVTVSSTRASTKGPSVFPLAPSSKSTSGGTAALGCLVKDYFPEPVTVSWNSGALTSGVHTFPAVLQSSGLYSLSSVVTVPSSSLGTQTYICNVNHKPSNTKVDKRVEPKSCEVKTDSTDHVKPKETENTKQPSKSCHKPKAIVHTEKVNMMSLTVLGLRMLFAKTVAVNFLLTAKLFFLRAKRSGSGVKQTLNFDLLKLAGDVESNPGPSRGHMTEYKPTVRLATRDDVPRAVRTLAAAFADYPATRHTVDPDRHIERVTELQELFLTRVGLDIGKVWVADDGAAVAVWTTPESVEAGAVFAEIGPRMAELSGSRLAAQQQMEGLLAPHRPKEPAWFLATVGVSPDHQGKGLGSAVVLPGVEAAERAGVPAFLETSAPRNLPFYERLGFTVTADVEVPEGPRTWCMTRKPGA
B3: 22149 (protein)
chain: MALPVTALLLPLALLLHAARPACEVQLLESGGGLIQPGGSLRLSCAASGFTFSSHAMTWVRQAPGKGLEWVSAISGSGDYTHYADSVKGRFTISRDNSKNTVYLQMNSLRAEDSAVYYCAKDEDGGSLLGHRGQGTLVTVSSGTGGGGSGGGGSGGGGSEFDVVMTQSPSSLSASVGDRVTITCMASEDIYIRLAWYQQKPGNAPKLLIYAATSLETGVPSRFSGSGSGTDFTLTISSLQPEDFATYYCQQYWSSPWTFGGGTKVEIKLEGQPKANPTVTLFPPSSEELQANKATLVCLISDFYPGAVTVAWKADGSPVKAGVETTKPSKQSNNKYAASSYLSLTPEQWKSHRSYSCQVTHEGSTVEKTVAPTECSGRADCGFTSESYQQGVLSATILYEILLGKATLYAVLVSALVLMAMVKRKDSRGRAKRSGSGATNFSLLKQAGDVEENPGPTSATMDWIWRILFLVGAATGAHSGPQVQLQESGGGLAQAGGSLRLSCAASGRTFSMGWFRQAPGKEREFVAAITYSGGSPYYASSVRGRFTISRDNAKNTVYLQMNSLKPEDTAVYYCAANPTYGSDWNAENWGQGTQVTVSSGSGGGGSGGGGSGGGGSFEQVQLQESGPGLVKPSQTLSLTCTVSGYSITSDYTWNWIRQPPGNGLEWIGYITYSGSTSYNPSLKSRVLISVDTSKNQVSLKLSSVTAADTAVYYCARLGRRYTMDYWGQGTTVTVSSTRASTKGPSVFPLAPSSKSTSGGTAALGCLVKDYFPEPVTVSWNSGALTSGVHTFPAVLQSSGLYSLSSVVTVPSSSLGTQTYICNVNHKPSNTKVDKRVEPKSCIPEDTFFPSPESSCDVKLVEKSFETDTNLNFQNLSVIGFRILLLKVAGFNLLMTLRLWSSRAKRSGSGVKQTLNFDLLKLAGDVESNPGPSRGHMTEYKPTVRLATRDDVPRAVRTLAAAFADYPATRHTVDPDRHIERVTELQELFLTRVGLDIGKVWVADDGAAVAVWTTPESVEAGAVFAEIGPRMAELSGSRLAAQQQMEGLLAPHRPKEPAWFLATVGVSPDHQGKGLGSAVVLPGVEAAERAGVPAFLETSAPRNLPFYERLGFTVTADVEVPEGPRTWCMTRKPGA

Assays:
Format in all cases: cell-based
[1] = system: RAJI cells; assay: JNG assay, co-culture with RAJI cells; conditions: for NFAT-GFP ASSAY: Raji: JNG cells expressing construct, co-culture with Raji
Procedure, shortened: (§1)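 Read-out is NFAT-driven GFP measured by flow cytometry after ~4–18 h co-culture of SAR-expressing JNG cells with target cells (E:T about 1:2). SARs were introduced by lentiviral spinfection and selected with puromycin or blasticidin when possible; scores (+/- to 5+ ≈ 5–50% GFP+) are relative to parental JNG cells.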

[2] = system: Nalm6 cells; assay: JNG assay, co-culture with Nalm6 cells; conditions: co-culture with Nalm6 cells
Procedure, shortened: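 Read-out is % GFP-positive cells by flow cytometry after ~4–18 h co-culture (E:T ≈1:2) of target lines with SAR-transduced, puromycin/blasticidin-selected JNG cells. Grades +/-, +, 2+…5+ correspond to approximately 5%, 10%, 20%, 30%, 40%, 50% GFP+ over parental JNG controls.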

[3] = system: HEL 92.1.7 cells; assay: JNG assay, co-culture with HEL 92.1.7 cells; conditions: for NFAT-GFP ASSAY: HEL 92.1.7: co-culture with HEL 92.1.7
Procedure: Cellular supernatant is collected and assayed for the induction of cytokines (e.g., IL2).
JNG (Jurkat cells expressing EGFP under an NFAT promoter) were infected with lentiviral vectors encoding different single chain and multi-chain SARs by spinfection in the presence of 8 µg/ml of Polybrene® (Sigma, Catalog no. H9268). The Jurkat-NFAT-GFP cells are engineered in such a way that the IL-2 promoter, which carries NFAT binding sites, is cloned upstream of the GFP gene. These cells have been used to study signaling via TCR and CAR. The different SARs were stably expressed in Jurkat NFAT-GFP cells by lentiviral mediated gene transfer, followed by selection with puromycin or blasticidin. No drug selection was used in case the construct lacked an antibiotic resistance gene. The SAR-expressing Jurkat-NFAT-GFP cells were cocultured with the target cells at E:T ratio of approximately 1:2 for approximately 4 hours to 18 hours. When the interaction between SIRs and their target antigen results in activation of the NFAT pathway, GFP expression is induced. […] GFP expression was monitored by FACS analysis. The Jurkat-NFAT-GFP (parental) cells were used as control. The structure of different constructs can be determined based on their names. […] The sequence of the other constructs in the table can be similarly determined from their names and by referring to the different Tables of this disclosure that provide the names and SEQ ID NO of the different modules. Alternatively, the composition and modular architecture of the different SAR constructs can be determined from their sequences by bioinformatics tools, including using nucleic acid and amino acids homology searches. […] The signs +/-, +, 2+ etc. after the name of the cell lines indicate the relative degree of positivity on the Jurkat-NFAT-GFP assay as measured by the % GFP positive cells after culture of the SAR expressing Jurkat-NFAT-GFP cells with that cell line above the % GFP cells observed in parental Jurkat NFAT-GFP cells serving as controls. […]

[4] = system: L363 cells; assay: JNG assay, co-culture with L363 cells; conditions: co-culture with L363
Procedure, shortened: as §1

[5] = system: U266 cells; assay: JNG NFAT-GFP induction on co-culture with U266

Row | Molecule | GFP induction / activity ([1]; co-culture with RAJI cells) | GFP induction / activity [2] | GFP induction ([3]; co-culture with MPL expressing HEL 92.1.7 cells) | NFAT-GFP ASSAY: Raji [1] | NFAT-GFP ASSAY: HEL 92.1.7 [3] | NFAT-GFP ASSAY: L363 [4] | NFAT-GFP ASSAY: U266 [5]
1 | B1 | only weak activity | only weak activity | marginal GFP induction | – | – | – | –
2 | B2 | – | – | – | 3+ (refer to approximately 5%, 10%, 20%, 30%, 40% and 50% GFP positive cells) | + (refer to approximately 5%, 10%, 20%, 30%, 40% and 50% GFP positive cells) | – | –
3 | B3 | – | – | – | 3+ (refer to approximately 5%, 10%, 20%, 30%, 40% and 50% GFP positive cells) | +/- (refer to approximately 5%, 10%, 20%, 30%, 40% and 50% GFP positive cells) | + (refer to approximately 5%, 10%, 20%, 30%, 40% and 50% GFP positive cells) | 3+ (refer to approximately 5%, 10%, 20%, 30%, 40% and 50% GFP positive cells)
